Laboratory results as given in the supplement of paper PMC11908140.

B1: library; numbered along this chain (parent)
chain: MRKPRAAVGSGHRKQAASQEGRQKHAKNNSQAKPSACDGLARQPEEVVLQASVSSYHLFRDVAEVTAFRGSLLSWYDQEKRDLPWRRRAEDEMDLDRRAYAVWVSEVMLQQTQVATVINYYTGWMQKWPTLQDLASASLEEVNQLWAGLGYYSRGRRLQEGARKVVEELGGHMPRTAETLQQLLPGVGRYTAGAIASIAFGQATGVVDGNVARVLCRVRAIGADPSSTLVSQQLWGLAQQLVDPARPGDFNQAAMELGATVCTPQRPLCSQCPVESLCRARQRVEQEQLLASGSLSGSPDVEECAPNTGQCHLCLPPSEPWDQTLGVVNFPRKASRKPPREESSATCVLEQPGALGAQILLVQRPNSGLLAGLWEFPSVTWEPSEQLQRKALLQELQRWAGPLPATHLRHLGEVVHTFSHIKLTYQVYGLALEGQTPVTTVPPGARWLTQEEFHTAAVSTAMKKVFRVYQGQQPGTCMGSKRSQVSSPCSRKKPRMGQQVLDNFFRSHISTDAHSLNSAAQ

Variants of: B1
Experiment: 8OG:A repair function score (normalized; synonymous = 0, nonsense = -1) (normalized log-likelihood score); higher = more repair activity (WT-like)
Conditions: with 8OG:A DNA repair reporter (GFP) in HEK-293 MUTYH KO cells
Method in brief: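 GFP+ (repair) and GFP− bins of viable mCherry+ cells were collected at 72 h from MUTYH knockout HEK-293 cells bearing lentiviral MUTYH cDNA NNN codon-scan libraries in 10 pg/ml doxycycline, co-transfected with an 8OG:A GFP repair reporter and mCherry. Tile amplicons were sequenced, and per-tile Rosace fitness scores were normalized to a repair function score anchored on synonymous and nonsense distributions. Synonymous medians were set to 0 and nonsense to -1, with variants under 300 counts per million at the start removed.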
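Further: cells sorted at 72 h after reporter transfection.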

In order of rising “8OG:A repair function score” value:
1. MRKPRAAVGSGHRKQAASQEGRQKHAKNNSQAKPSACDGLARQPEEVVLQASVSSYHLFRDVAEVTAFRGSLLSWYDQEKRDLPWRRRAEDEMDLDRRAYAVWVSEVMLQQTQVATVINYYTGWMQKWPTLQDLASASLEEVNQLWAGLGYYSRGRRLQEGARKVVEELGGHMPRTAETLQQLLPGVGRYTAGAIASIAFGQATGVVDGNVARVLCRVRAIGADPSSTLVSQQLWGLAQQLVDPARPGDFNQAAMELGATVCTPQRPLCSQCPVESLIRARQRVEQEQLLASGSLSGSPDVEECAPNTGQCHLCLPPSEPWDQTLGVVNFPRKASRKPPREESSATCVLEQPGALGAQILLVQRPNSGLLAGLWEFPSVTWEPSEQLQRKALLQELQRWAGPLPATHLRHLGEVVHTFSHIKLTYQVYGLALEGQTPVTTVPPGARWLTQEEFHTAAVSTAMKKVFRVYQGQQPGTCMGSKRSQVSSPCSRKKPRMGQQVLDNFFRSHISTDAHSLNSAAQ [C278I]  -1.03
2. MRKPRAAVGSGHRKQAASQEGRQKHAKNNSQAKPSACDGLARQPEEVVLQASVSSYHLFRDVAEVTAFRGSLLSWYDQEKRDLPWRRRAEDEMDLDRRAYAVWVSEVKLQQTQVATVINYYTGWMQKWPTLQDLASASLEEVNQLWAGLGYYSRGRRLQEGARKVVEELGGHMPRTAETLQQLLPGVGRYTAGAIASIAFGQATGVVDGNVARVLCRVRAIGADPSSTLVSQQLWGLAQQLVDPARPGDFNQAAMELGATVCTPQRPLCSQCPVESLCRARQRVEQEQLLASGSLSGSPDVEECAPNTGQCHLCLPPSEPWDQTLGVVNFPRKASRKPPREESSATCVLEQPGALGAQILLVQRPNSGLLAGLWEFPSVTWEPSEQLQRKALLQELQRWAGPLPATHLRHLGEVVHTFSHIKLTYQVYGLALEGQTPVTTVPPGARWLTQEEFHTAAVSTAMKKVFRVYQGQQPGTCMGSKRSQVSSPCSRKKPRMGQQVLDNFFRSHISTDAHSLNSAAQ [M108K]  -1.01
3. MRKPRAAVGSGHRKQAASQEGRQKHAKNNSQAKPSACDGLARQPEEVVLQASVSSYHLFRDVAEVTAFRGSLLSWYDQEKRDLPWRRRAEDEMDLDRRAYAVWVSEVMLQQTQVATVINYYTGWMQKWPTLQDLASASLEEVNQLWAGLGYYSRGRRLQEGARKVVEELGGHMPRTAETLQQLLPGVGRYTAGAIASIAFGQATGVVDGNVARVLCRVRAIGADPSSTLVSQQLWGLAQQLVDPARPGDFNQAAMELGATVCTPQRPLCSQCPVESLCRPRQRVEQEQLLASGSLSGSPDVEECAPNTGQCHLCLPPSEPWDQTLGVVNFPRKASRKPPREESSATCVLEQPGALGAQILLVQRPNSGLLAGLWEFPSVTWEPSEQLQRKALLQELQRWAGPLPATHLRHLGEVVHTFSHIKLTYQVYGLALEGQTPVTTVPPGARWLTQEEFHTAAVSTAMKKVFRVYQGQQPGTCMGSKRSQVSSPCSRKKPRMGQQVLDNFFRSHISTDAHSLNSAAQ [A280P]  -0.965
4. MRKPRAAVGSGHRKQAASQEGRQKHAKNNSQAKPSACDGLARQPEEVVLQASVSSYHLFRDVAEVTAFRGSLLSWYDQEKRDLPWRRRAEDEMDLDRRAYAVWVSEVMLQQTQVATVINYYTGWMQKWPTLQDLASASLEEVNQLWAGLGYYSRGRRLQEGARKVVEELGGHMPRTAETLQQLLPGVGRYTAGAIASIAFGQATGVVDGNVARVLCRVRAIGADPSSTLVSQQLWGRAQQLVDPARPGDFNQAAMELGATVCTPQRPLCSQCPVESLCRARQRVEQEQLLASGSLSGSPDVEECAPNTGQCHLCLPPSEPWDQTLGVVNFPRKASRKPPREESSATCVLEQPGALGAQILLVQRPNSGLLAGLWEFPSVTWEPSEQLQRKALLQELQRWAGPLPATHLRHLGEVVHTFSHIKLTYQVYGLALEGQTPVTTVPPGARWLTQEEFHTAAVSTAMKKVFRVYQGQQPGTCMGSKRSQVSSPCSRKKPRMGQQVLDNFFRSHISTDAHSLNSAAQ [L237R]  -0.738
5. MRKPRAAVGSGHRKQAASQEGRQKHAKNNSQAKPSACDGLARQPEEVVLQASVSSYHLFRDVAEVTAFRGSLLSWYDQEKRDLPWRRRAEDEMDLDRRAYAVWVSEVMLQQTQVATVINYYTGWMQKWPTLQDLASASLEEVNQLWAGLGYYSRGRRLQEGARKVVEELGGHMPRTAETLQQLLPGVGRYTAGAIASIAFGQATGVVDGNVARVLCRVRAIGADDSSTLVSQQLWGLAQQLVDPARPGDFNQAAMELGATVCTPQRPLCSQCPVESLCRARQRVEQEQLLASGSLSGSPDVEECAPNTGQCHLCLPPSEPWDQTLGVVNFPRKASRKPPREESSATCVLEQPGALGAQILLVQRPNSGLLAGLWEFPSVTWEPSEQLQRKALLQELQRWAGPLPATHLRHLGEVVHTFSHIKLTYQVYGLALEGQTPVTTVPPGARWLTQEEFHTAAVSTAMKKVFRVYQGQQPGTCMGSKRSQVSSPCSRKKPRMGQQVLDNFFRSHISTDAHSLNSAAQ [P225D]  -0.53
6. MRKPRAAVGSGHRKQAASQEGRQKHAKNNSQAKPSACDGLARQPEEVVLQASVSSYHLFRDVAEVTAFRGSLLSWYDQEKRDLPWRRRAEDEMDLDRRAYAVWVSEVMLQQTQVATVINYYTGWMQKWPTLQDLASASLEEVNQLWAGLGYYSRGRRLQEGARKVVEELGGHMPRTAETLQQLLPGVGRYTAGAIASIAFGQATGVVDGNVARVLCRVRAIGADPSSTLVSQQLWGLAQQLVDPARPGDFNQAAMELGATVCTPQRPLCSQCPVESLCRARQRVEQEQLLASGSLSGSPDVEECAPNTGQCHLCLPPSEPWDQTLGVVNFPRKASRKPPREESSATCVLEQPGALGAQILLVDRPNSGLLAGLWEFPSVTWEPSEQLQRKALLQELQRWAGPLPATHLRHLGEVVHTFSHIKLTYQVYGLALEGQTPVTTVPPGARWLTQEEFHTAAVSTAMKKVFRVYQGQQPGTCMGSKRSQVSSPCSRKKPRMGQQVLDNFFRSHISTDAHSLNSAAQ [Q363D]  -0.431
7. MRKPRAAVGSGHRKQAASQEGRQKHAKNNSQAKPSACDGLARQPEEVVLQASVSSYHLFRDVAEVTAFRGSLLSWYDQEKRDLPWRRRAEDEMDLDRRAYAVWVSEVMLQQTQVATVINYYTGWMQKWPTLQDLASASLHEVNQLWAGLGYYSRGRRLQEGARKVVEELGGHMPRTAETLQQLLPGVGRYTAGAIASIAFGQATGVVDGNVARVLCRVRAIGADPSSTLVSQQLWGLAQQLVDPARPGDFNQAAMELGATVCTPQRPLCSQCPVESLCRARQRVEQEQLLASGSLSGSPDVEECAPNTGQCHLCLPPSEPWDQTLGVVNFPRKASRKPPREESSATCVLEQPGALGAQILLVQRPNSGLLAGLWEFPSVTWEPSEQLQRKALLQELQRWAGPLPATHLRHLGEVVHTFSHIKLTYQVYGLALEGQTPVTTVPPGARWLTQEEFHTAAVSTAMKKVFRVYQGQQPGTCMGSKRSQVSSPCSRKKPRMGQQVLDNFFRSHISTDAHSLNSAAQ [E140H]  -0.253
8. MRKPRAAVGSGHRKQAASQEGRQKHAKNNSQAKPSACDGLARQPEEVVLQASVSSYHLFRDVAEVTAFRGSLLSWYDQEKRDLPWRRRAEDEMDLDRRAYAVWVSEVMLQQTQVATVINYYTGWMQKWPTLQDLASASLEEVNQLWAGLGYYSRGRRLQEGARKVVEELGGHMPRTAETLQQLLPGVGRYTAGAIASIAFGQATGVVDGNVARVLCRVRAIGADPSSTLVSQQLWGLAQQLVDPARPGDFNQAAMELGATVCTPQRPLCSQCPVESLCRARQRVEQEQLLASGSLSGSPDVEECAPNTGQCHLCLPPSEPWDQTLGVVNFPRKASRKPPREESSATCVLEQPGALGAQILLVQRPNSGLLAGLWEFPSVTWEPSEQLQRKALLQELQRWAGPLPATHLRHLGEVVHTFSHIKLTYQVYGLALEGQTPVTLVPPGARWLTQEEFHTAAVSTAMKKVFRVYQGQQPGTCMGSKRSQVSSPCSRKKPRMGQQVLDNFFRSHISTDAHSLNSAAQ [T440L]  -0.194
9. MRKPRAAVGSGHRKQAASQEGRQKHAKNNSQAKPSACDGLARQPEEVVLQASVSSYHLFRDVAEVTAFRGSLLSWYDQEKRDLPWRRRAEDEMDLDRRAYAVWVSEVMLQQTQVATVINYYTGWMQKWPTLQDLASASLEEVNQLWAGLGYYSRGRRLQEGARKVVEELGGHMPRTAETLQQLLPGVGRYTAGAIASIAFGQATGVVDGNVARVLCRVRAIGADPSSTLVSQQLWGLAQQLVDPARPGDFNQAAMELGATVCTPQRPLCSQCPVESLCRARQRVEQEQLDASGSLSGSPDVEECAPNTGQCHLCLPPSEPWDQTLGVVNFPRKASRKPPREESSATCVLEQPGALGAQILLVQRPNSGLLAGLWEFPSVTWEPSEQLQRKALLQELQRWAGPLPATHLRHLGEVVHTFSHIKLTYQVYGLALEGQTPVTTVPPGARWLTQEEFHTAAVSTAMKKVFRVYQGQQPGTCMGSKRSQVSSPCSRKKPRMGQQVLDNFFRSHISTDAHSLNSAAQ [L290D]  -0.0753
10. MRKPRAAVGSGHRKQAASQEGRQKHAKNNSQAKPSACDGLARQPEEVVLQASVSSYHLFRDVAEVTAFRGSLLSWYDQEKRDLPWRRRAEDEMDLDRRAYAVWVSEVMLQQTQVATVINYYTGWMQKWPTLQDLASASLEEVNQLWAGLGYYSRGRRLQEGARKVVEELGGHMPRTAETLQQLLPGVGRYTAGAIASIAFGQATGVVDGNVARVLCRVRAIGADPSSTLVSQQLWGLAQQLVDPARPGDFNQAAMELGATVCTPQRPLCSQCPVESLCRARQRVEQEQLLASGSLSGCPDVEECAPNTGQCHLCLPPSEPWDQTLGVVNFPRKASRKPPREESSATCVLEQPGALGAQILLVQRPNSGLLAGLWEFPSVTWEPSEQLQRKALLQELQRWAGPLPATHLRHLGEVVHTFSHIKLTYQVYGLALEGQTPVTTVPPGARWLTQEEFHTAAVSTAMKKVFRVYQGQQPGTCMGSKRSQVSSPCSRKKPRMGQQVLDNFFRSHISTDAHSLNSAAQ [S298C]  -0.0366
11. MRKPRAAVGSGHRKQAASQEGRQKHAKNNSQAKPSACDGLARQPEEVVLQASVSSYHLFRDVAEVTAFRGSLLSWYDQEKRDLPWRRRAEDEMDLDRRAYAVWVSEVMLQQTQVATVINYYTGWMQKWPTLQDLASASLEEVNQLWAGLGYYSRGRRLQEGARKVVEELGGHMPRTAETLQQLLPGVGRYTAGAIASIAFGQATGVVDGNVARVLCRVRAIGADPSSTLVSQQLWGLAQQLVDPARPGDFNQAAMELGATVCTPQRPLCSQCPVESLCRARQRVEQEQLLASGSYSGSPDVEECAPNTGQCHLCLPPSEPWDQTLGVVNFPRKASRKPPREESSATCVLEQPGALGAQILLVQRPNSGLLAGLWEFPSVTWEPSEQLQRKALLQELQRWAGPLPATHLRHLGEVVHTFSHIKLTYQVYGLALEGQTPVTTVPPGARWLTQEEFHTAAVSTAMKKVFRVYQGQQPGTCMGSKRSQVSSPCSRKKPRMGQQVLDNFFRSHISTDAHSLNSAAQ [L295Y]  -0.0185
12. MRKPRAAVGSGHRKQAASQEGRQKHAKNNSQAKPSACDGLARRPEEVVLQASVSSYHLFRDVAEVTAFRGSLLSWYDQEKRDLPWRRRAEDEMDLDRRAYAVWVSEVMLQQTQVATVINYYTGWMQKWPTLQDLASASLEEVNQLWAGLGYYSRGRRLQEGARKVVEELGGHMPRTAETLQQLLPGVGRYTAGAIASIAFGQATGVVDGNVARVLCRVRAIGADPSSTLVSQQLWGLAQQLVDPARPGDFNQAAMELGATVCTPQRPLCSQCPVESLCRARQRVEQEQLLASGSLSGSPDVEECAPNTGQCHLCLPPSEPWDQTLGVVNFPRKASRKPPREESSATCVLEQPGALGAQILLVQRPNSGLLAGLWEFPSVTWEPSEQLQRKALLQELQRWAGPLPATHLRHLGEVVHTFSHIKLTYQVYGLALEGQTPVTTVPPGARWLTQEEFHTAAVSTAMKKVFRVYQGQQPGTCMGSKRSQVSSPCSRKKPRMGQQVLDNFFRSHISTDAHSLNSAAQ [Q43R]  0.0791
